Changes are numbered by the printed parent chain.
Tests used:
[1] = molecular target: T1, phAimR dimer (N103C-labelled) (Bacillus phage phi3T, UniProt P0DOE3, C136S/C223S/C267S/C6S/C74S/C99S/N103C); assay: smFRET titration of phAimR dimer labelled at N103C (Alexa488/Cy5); type: binding; details: titration of SAIRGA (20-500 nM) or target DNA (500-8000 nM), GMPRGA at 500 nM
T1 construct: 6xHis (N, cleaved yes); made in house; host or cells: Escherichia coli BL21 (DE3)
Experimental: (§1) The cysteine substitutions of phAimR (phAimR^C6S/C74S/C99S/C136S/C223S/C267S/N103C or phAimR^C6S/C74S/ C99S/C136S/C223S/C267S/D174C) were generated with a standard PCR-based strategy. Proteins were prepared in the same way as the wild-type phAimR. Alexa Fluor 488 C5 maleimide (Alexa488, A10254, Thermo Fisher, Shanghai, China) and Cy5 maleimide (Cy5, PA15131, GE Healthcare, Shanghai, China) were used as fluorescence donor and acceptor, respectively. A desalting column (HiPrep 26/10, GE Healthcare, Shanghai, China) was used to exchange the protein buffer into the conjugation buffer containing 20 mM phosphate (pH 7.4) and 100 mM NaCl. The protein fraction was collected in premixed Alexa488 and Cy5 dyes. The conjugation of phAimR was performed with Alexa488 and Cy5 at a molar ratio of 1:4:4. Conjugation reaction was performed for 3 h at room temperature in the dark, and the mixture was then purified using a Source-Q column (GE Healthcare, Shanghai, China). The fractions of double-labeled protein that had absorption at 280 nm, 493 nm and 640 nm were collected for smFRET data collection.
(§2) The laser confocal fluorescence microscope MicroTime 200 (PicoQuant, Berlin, Germany) was used for single-molecule imaging, and a pulsed interleaved excitation (PIE) scheme was used with two SPCM-AQRH detectors (Excelitas, Waltham, MA, USA) for recording fluorescence time traces at two different wavelengths. Two picosecond-pulsed diode laser heads (LDH-P-C-485 and LDH-P-C-640; PicoQuant, Berlin, Germany) were driven by a PDL 828 Sepia II driver (PicoQuant) at a repetition rate of 40 MHz, which allowed interleaved excitations for Alexa488 and Cy5. Each laser was coupled to the inverted microscope IX 73 (Olympus, Beijing, China) through a single-mode fiber, and was reflected by a dichroic mirror through a water-immersion objective (UPLSAPO 60×, N.A. 1.20). The protein sample was loaded onto a hybridization chamber (Thermo Fisher) glued to a glass coverslip (Thermo Fisher, Shanghai, China). The laser confocal point was set to about 50 μm above the coverslip. The excitation power at the back of the objective was about 100 μW for the 485 nm laser and about 35 μW for the 640 nm laser, as estimated with a power meter (PM20-FC; Thorlabs, Shanghai, China). Focused to a 100 μm pinhole, the fluorescence emission from the excited protein molecule was collected with the same objective. The donor and acceptor emissions were separated with a dichroic mirror (T635lpxr; Chroma, Xiamen, China). The donor emission was filtered with a 520/35 BP band pass, and the acceptor emission was filtered with a 690/70 BP band pass, before being focused onto the two SPCM-AQRH detectors.
(§3) The fluorescence outputs were recorded with a TimeHarp 260 PCI board (PicoQuant, Berlin, Germany) built into a PC workstation, and the data were stored in the time-tagged time-resolved module (PicoQuant, Berlin, Germany). The photon counts including fDex/Dem, fDex/Aem and fAex/Aem were obtained by binning the photons in 1 ms bins using SymPhoTime64 software (PicoQuant, Berlin, Germany). […] With all three fluorescence time traces recorded, the signals from the donor-only or acceptor-only protein molecules were filtered out, so as to ensure that an fDex/Aem photon only arises from a doubly labeled protein. […]

[2] = molecular target: T2, phAimR dimer (D174C-labelled) (Bacillus phage phi3T, UniProt P0DOE3, C136S/C223S/C267S/C6S/C74S/C99S/D174C); assay: smFRET titration of phAimR dimer labelled at D174C (Alexa488/Cy5); type: binding; details: titration of SAIRGA or target DNA, GMPRGA at 500 nM
T2 construct: 6xHis (N, cleaved yes); made in house; host or cells: Escherichia coli BL21 (DE3)
Experimental: as §1, §2, §3

[3] = test system: phAimR–target DNA interaction; assay: Electrophoretic mobility shift assay, phAimR binding to target DNA; type: biochemical, Bacillus phage phi3T; details: 5 nM FAM-labelled 41 bp DNA; 0, 0.037, 0.11, 0.33 and 1 M (so in the source) phAimR, peptide 10-fold molar excess; 25 mM Tris-HCl pH 8.0, 150 mM NaCl, room temperature, 10 min; three biological replicates
Experimental: DNA probes were annealed using boiling water with FAM-labeled primers to generate the 41 bp DNA fragment (70262-70302, 5′ […] 3′) from phi3T bacteriophage genome. The labeled probes (5 nM) were incubated with 0, 0.037, 0.11, 0.33 and 1 M phAimR proteins or peptide-bound phAimR complex (peptide is 10-fold molar excess of phAimR) in a buffer containing 25 mM Tris-HCl (pH 8.0), 5 mM MgCl2, 5 mM DTT, 0.1 mg·mL^−1 BSA, 10% glycerol and 150 mM NaCl at room temperature for 10 min. The reactions were resolved on 6% native acrylamide gels (37.5:1 acrylamide:bis-acrylamide) in 0.5× TBE buffer at 100 V for 75 min. Images of the gels were obtained using FLA5100 (Typhoon, Shanghai, China).
Figure S 6. EMSA characterize the interaction between phAimR and target DNA. The phi 3T-derived SAIRGA peptide abolishes the DNA binding ability of phAimR, whereas the SP beta-derived GMPRGA peptide has no effects. Each EMSA experiments was conducted for three biological replicates.
F ig u re S 7. Comparison of cross-correlation function GAD(τ) between apo phAimR ( b l a c k line), in complex with 500 nM SAIRGA peptide (blue line) and 8000 nM target DNA (red line). FCS data was collected forthe N103C dyes -labeled phAimR dimer. […]

spAimR = details: cited from earlier work
phAimR N103C-labeled = molecular target: T3, phAimR N103C-labeled (Bacillus phage phi3T, UniProt P0DOE3 1-378, C6S;C74S;C99S;C136S;C223S;C267S;N103C); assay: smFRET titration; no peptide; EMSA: 25 mM Tris-HCl pH 8.0, 150 mM NaCl, 5 mM MgCl2, 5 mM DTT, 0.1 mg/mL BSA, 10% glycerol, room temperature 10 min, 5 nM probe, protein 0-1 (printed 'M', probably uM); smFRET titration buffer not in the material; details: protein: recombinant; tags: N-terminal 6xHis removed with drICE protease; Alexa488/Cy5 maleimide at C103; chain copies: 2; blunt
T3 sequence: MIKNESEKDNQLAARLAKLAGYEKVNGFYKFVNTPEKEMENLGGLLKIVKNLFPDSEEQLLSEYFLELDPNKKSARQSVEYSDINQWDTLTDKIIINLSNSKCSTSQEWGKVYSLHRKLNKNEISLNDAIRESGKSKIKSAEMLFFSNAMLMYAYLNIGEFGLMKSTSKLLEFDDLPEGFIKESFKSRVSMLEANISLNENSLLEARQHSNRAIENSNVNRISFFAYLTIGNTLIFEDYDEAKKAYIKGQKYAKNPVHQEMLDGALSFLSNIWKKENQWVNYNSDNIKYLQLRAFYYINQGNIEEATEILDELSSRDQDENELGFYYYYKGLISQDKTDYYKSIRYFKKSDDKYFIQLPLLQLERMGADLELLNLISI

phAimR D174C-labeled = molecular target: T4, phAimR D174C-labeled (Bacillus phage phi3T, UniProt P0DOE3 1-378, C6S;C74S;C99S;C136S;C223S;C267S;D174C); assay: as above; details: protein: recombinant; tags: N-terminal 6xHis removed with drICE protease; Alexa488/Cy5 at C174; chain copies: 2; blunt
T4 sequence: T3 sequence with C103N, D174C

phAimR wild type = molecular target: T5, phAimR wild type (Bacillus phage phi3T, UniProt P0DOE3 1-378); assay: EMSA; no peptide; 5 mM MgCl2; EMSA: 25 mM Tris-HCl pH 8.0, 150 mM NaCl, 5 mM MgCl2, 5 mM DTT, 0.1 mg/mL BSA, 10% glycerol, room temperature 10 min, 5 nM probe, protein 0-1 (printed 'M', probably uM); smFRET titration buffer not in the material; details: protein: recombinant; tags: N-terminal 6xHis removed with drICE protease; chain copies: 2; label: FAM; blunt
T5 sequence: T3 sequence with S6C, S74C, S99C, C103N, S136C, S223C, S267C

[4] = molecular target: the molecule itself; assay: SEC; Superdex 200 Increase 10/300 GL; 8.2 uM protein without peptide; 25 mM Tris-HCl pH 8.0, 300 mM NaCl
[5] = molecular target: the molecule itself; assay: SEC-MALS; static light scattering; 1.6 mg/mL protein without peptide; Superdex 200 Increase 10/300 with HELEOS multi-angle light scattering; 25 mM Tris-HCl pH 8.0, 300 mM NaCl

T2 sequence (P0DOE3 whole entry C6S/C74S/C99S/C136S/D174C/C223S/C267S): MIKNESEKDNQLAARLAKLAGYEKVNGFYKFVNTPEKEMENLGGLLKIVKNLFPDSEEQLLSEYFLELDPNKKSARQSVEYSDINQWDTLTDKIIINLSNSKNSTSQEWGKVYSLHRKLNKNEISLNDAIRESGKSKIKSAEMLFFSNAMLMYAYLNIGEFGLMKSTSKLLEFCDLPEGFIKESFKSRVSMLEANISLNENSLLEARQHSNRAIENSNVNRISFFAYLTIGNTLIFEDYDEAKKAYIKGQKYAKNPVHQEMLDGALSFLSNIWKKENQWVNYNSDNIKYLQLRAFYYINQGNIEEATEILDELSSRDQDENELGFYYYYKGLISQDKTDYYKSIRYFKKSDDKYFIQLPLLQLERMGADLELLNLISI

With “GMPRGA [SPbeta arbitrium peptide (GMPRGA), negative control, reference compound]” the “effect on smFRET profile / conformational state enriched” value [1] was “no perturbation on the smFRET profile of phAimR”, the “effect on smFRET profile / conformational state enriched” value [2] was “no perturbation on the smFRET profile of phAimR” and the “effect on DNA binding ability of phAimR (EMSA)” value [3] was “no effects”. The Kd (spAimR) was 4.6 nM.

B1: phi3T target DNA (smFRET titration) (dsDNA)
DNA 1: GAAATGTCCAGAAATTCAAAAATCAAAAAATAAGAACATGG
DNA 2: CCATGTTCTTATTTTTTGATTTTTGAATTTCTGGACATTTC
B1 showed a Kd (phAimR N103C-labeled) of 1650 ± 44.6 nM and a Kd (phAimR D174C-labeled) of 1260 ± 218 nM.

B2: phi3T target DNA 41 bp, FAM probe (dsDNA)
DNA 1: B1 DNA 1
DNA 2: B1 DNA 2
B2: binds (phAimR wild type).

B3: AimR from Phi3T phage (phAimR), wild type (natural protein, Bacillus phage phi3T)
chain: T3 sequence with S6C, S74C, S99C, C103N, S136C, S223C, S267C
notes: AimR transcription factor of Bacillus phage phi3T, codon-optimized cDNA (GenBank KY030782.1) in pET15b; theoretical mass printed as 44.3 kDa; 6x His tag removed with drICE protease; Dimer by SLS, AUC and SAXS; also called phi3T AimR; wild-type phAimR; source: E. coli BL21 (DE3), purified (Ni-NTA, anion exchange, size-exclusion chromatography); not shown: His6, N-terminal, cleaved
With B3 the “stoichiometry N” value [4] was 2 and the “stoichiometry N” value [5] was roughly 2.

— paper PMC8464984, “AimR Adopts Preexisting Dimer Conformations for Specific Target Recognition in Lysis-Lysogeny Decisions of Bacillus Phage phi3T” (Biomolecules, 2021)
